Results: US20260234234A1 (QILU PUGET SOUND BIOTHERAPEUTICS, published 2026)
Where two headings read alike, the source gives them in different places.

Assays:
[1] = target: T1, His6-tagged cyIL-33 (Ser112-Ile270), QB10976 (cynomolgus monkey); assay: SPR, cyIL-33 analyte
T1 construct: Entry includes N-terminal Avitag, FLAG and His6 tags; isoform X1, NCBI XP_005581824; also called cyIL-33 antigen
T1 chain: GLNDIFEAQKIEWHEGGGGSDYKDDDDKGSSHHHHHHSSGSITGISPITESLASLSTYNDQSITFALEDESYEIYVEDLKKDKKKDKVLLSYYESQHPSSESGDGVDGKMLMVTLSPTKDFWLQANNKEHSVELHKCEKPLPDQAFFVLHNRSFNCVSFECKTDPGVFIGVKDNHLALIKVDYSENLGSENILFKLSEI

[2] = target: T1, His6-tagged cyIL-33 (Ser112-Ile270), …; assay: cell-based or functional assay
[3] = target: T2, hIL-33 used in the cell-based assays of Example 13 (human, UniProt O95760 112-270); assay: cell-based or functional assay
T2 sequence (looked up): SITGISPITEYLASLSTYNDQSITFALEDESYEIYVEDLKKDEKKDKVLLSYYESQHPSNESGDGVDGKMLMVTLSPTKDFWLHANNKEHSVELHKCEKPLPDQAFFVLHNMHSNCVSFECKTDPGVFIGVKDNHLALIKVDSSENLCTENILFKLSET

[4] = target: T1, His6-tagged cyIL-33 (Ser112-Ile270), …; assay: SPR, captured antibody, cyIL-33 analyte, 25 C, 1:1 fit
[5] = target: T3, Avitag_c-MYC_His6-tagged hIL-33 (Ser112-Thr270), QB10975 (human); assay: SPR, captured antibody, hIL-33 analyte, 37 C, 1:1 fit
T3 construct: Entry includes N-terminal Avitag, c-MYC and His6 tags; reduced with DTT to the active form; also called active hIL-33; reduced hIL-33
T3 chain: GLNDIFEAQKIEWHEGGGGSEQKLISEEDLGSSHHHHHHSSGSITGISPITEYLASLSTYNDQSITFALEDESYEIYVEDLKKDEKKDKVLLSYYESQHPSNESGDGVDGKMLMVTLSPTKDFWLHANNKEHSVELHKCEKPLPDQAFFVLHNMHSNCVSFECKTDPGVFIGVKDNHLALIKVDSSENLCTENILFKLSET

[6] = target: hTSLP antigen, version not stated (human, UniProt Q969D9 29-159, limits assumed); assay: cell-based or functional assay
[7] = target: T4, Avitag_c-MYC_His6_hTSLP QB11631 with mutations of R127A + R130S (human); assay: SPR (Biacore), hTSLP (R127A+R130S) antigen
T4 construct: Substitutions and tags already in the entry; also called hTSLP (R127A+R130S)

[8] = target: T4, Avitag_c-MYC_His6_hTSLP QB11631 with …; assay: SPR (Biacore)
[9] = target: T5, cyTSLP antigen, version not stated (cynomolgus monkey, UniProt A0A7N9CAT7 29-159); assay: SPR (Biacore)
T5 construct: Used where the text only says cyTSLP

[10] = target: T4, Avitag_c-MYC_His6_hTSLP QB11631 with …; assay: SPR (Biacore), hTSLP (R127A+R130S) antigen; remark: listed apart in the source
[11] = target: Avitag_c-MYC_His6_hTSLP (wild type) QB11630 (human); assay: cell-based or functional assay
[12] = target: T4, Avitag_c-MYC_His6_hTSLP QB11631 with …; assay: cell-based or functional assay
[13] = target: T6, Avitag_c-MYC_His6_hTSLP QB11033 with deletion of 126KRRKR130 (human); assay: cell-based or functional assay
T6 chain: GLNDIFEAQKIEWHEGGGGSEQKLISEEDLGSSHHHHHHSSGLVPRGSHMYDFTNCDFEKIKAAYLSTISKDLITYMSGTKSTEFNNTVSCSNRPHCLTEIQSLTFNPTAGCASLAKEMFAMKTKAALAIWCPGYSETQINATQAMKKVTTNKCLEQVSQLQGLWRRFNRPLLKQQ

[14] = target: T7, Avitag_FLAG_His6_cyTSLP QB11633 with mutations of R127A + R130S (cynomolgus monkey); assay: cell-based or functional assay
T7 chain: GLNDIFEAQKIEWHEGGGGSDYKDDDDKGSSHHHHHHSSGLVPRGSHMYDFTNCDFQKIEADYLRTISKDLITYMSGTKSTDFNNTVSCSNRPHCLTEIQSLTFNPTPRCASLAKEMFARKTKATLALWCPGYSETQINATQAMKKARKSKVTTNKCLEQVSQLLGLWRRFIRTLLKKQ

[15] = target: T8, Avitag_FLAG_His6_cyTSLP QB11632 (wild type) (cynomolgus monkey); assay: cell-based or functional assay
T8 chain: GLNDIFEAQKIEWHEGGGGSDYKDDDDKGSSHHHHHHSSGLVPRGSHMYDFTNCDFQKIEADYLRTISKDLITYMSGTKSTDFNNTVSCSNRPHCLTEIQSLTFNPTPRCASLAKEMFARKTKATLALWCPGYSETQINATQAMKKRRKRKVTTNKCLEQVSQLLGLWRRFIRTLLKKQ

[16] = target: T9, Avitag_FLAG_His6_cyTSLP QB10974 with deletion of 126KRRKR130 (cynomolgus monkey); assay: cell-based or functional assay
T9 chain: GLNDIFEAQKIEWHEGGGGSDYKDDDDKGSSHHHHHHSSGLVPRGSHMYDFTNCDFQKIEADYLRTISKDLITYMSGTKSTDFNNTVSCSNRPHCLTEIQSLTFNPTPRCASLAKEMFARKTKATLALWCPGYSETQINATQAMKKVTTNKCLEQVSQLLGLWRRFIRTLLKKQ

[17] = target: Avitag_c-MYC_His6_hTSLP (wild type) QB11630 (human); assay: cell-based or functional assay; remark: listed apart in the source
[18] = target: T4, Avitag_c-MYC_His6_hTSLP QB11631 with …; assay: cell-based or functional assay; remark: listed apart in the source
[19] = target: T6, Avitag_c-MYC_His6_hTSLP QB11033 with …; assay: cell-based or functional assay
[20] = target: T7, Avitag_FLAG_His6_cyTSLP QB11633 with …; assay: cell-based or functional assay
[21] = target: T8, Avitag_FLAG_His6_cyTSLP QB11632 (wild …); assay: cell-based or functional assay
[22] = target: T9, Avitag_FLAG_His6_cyTSLP QB10974 with …; assay: cell-based or functional assay
[23] = target: T3, Avitag_c-MYC_His6-tagged hIL-33 …; assay: SPR competition, antibody titrated against 10 nM hIL-33, over immobilised hST2-Fc

B1: anti-hIL-33 IgG4 antibody QB11465 (antibody)
heavy: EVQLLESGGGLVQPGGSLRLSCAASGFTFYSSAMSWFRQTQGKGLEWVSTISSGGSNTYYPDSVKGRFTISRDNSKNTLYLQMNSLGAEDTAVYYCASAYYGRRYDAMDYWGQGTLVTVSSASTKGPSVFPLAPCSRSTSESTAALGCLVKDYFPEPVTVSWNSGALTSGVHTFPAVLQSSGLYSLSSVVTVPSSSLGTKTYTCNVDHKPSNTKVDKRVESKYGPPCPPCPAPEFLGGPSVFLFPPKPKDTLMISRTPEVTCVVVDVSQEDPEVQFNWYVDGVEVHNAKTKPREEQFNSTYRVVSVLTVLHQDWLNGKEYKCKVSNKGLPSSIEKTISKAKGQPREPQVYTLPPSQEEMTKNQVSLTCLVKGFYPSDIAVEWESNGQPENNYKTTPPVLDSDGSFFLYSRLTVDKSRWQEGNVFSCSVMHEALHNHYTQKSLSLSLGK
light: DVVMTQSPPSLPVTLGQSASISCKSSESLLHSNANTYLYWFQQRPGQSPQLLIYRGSNLASGVPDRFSGSGSGTDFTLKISRVEAEDVGVYYCMQHLRNPYTFGQGTKVEIKRTVAAPSVFIFPPSDEQLKSGTASVVCLLNNFYPREAKVQWKVDNALQSGNSQESVTEQDSKDSTYSLSSTLTLSKADYEKHKVYACEVTHQGLSSPVTKSFNRGEC
notes: also called lead anti-hIL-33 IgG4 antibody
fold improvement of affinity against parental antibody QB11119 [1]: ~3 fold
IC50, inhibition of cyIL-33-induced p38 MAPK phosphorylation in ILC2s (FIG. 17D) [2]: 4.4 nM
IC50, inhibition of hIL-33-induced IFNγ secretion from primary human NK cells [3]: 1 nM
IC50, inhibition of hIL-33-induced hIL-5 secretion from primary human ILC2 cells [3]: 2.39 nM
IC50, inhibition of hIL-33-induced p38 MAPK phosphorylation in ILC2s (FIG. 17C) [3]: 0.33 nM
IC50, inhibition of hIL-33-induced p38 MAPK phosphorylation in ILC2s (FIG. 17D) [3]: 0.82 nM
Kd [4]: 5.14 nM
koff [4]: 0.00191 s⁻¹
kon [4]: 371000 M⁻¹ s⁻¹
Kd [5]: 0.209 nM
koff [5]: 0.000695 s⁻¹
kon [5]: 3.33e+06 M⁻¹ s⁻¹

B2: rabbit anti-hTSLP monoclonal antibody clone 135F1 (antibody, V domains shown)
VH: QEQLEESGGDLVKPEGSLTLTCKASGFDFSSYWISWVRQAPGKRPEWIACIDSDIDSADYASWAKGRFTMSRTSSTTVTLQMTSLTAADTATYFCVRNLGLWGPGTLVTVSS
VL: AQVLTQTASPVSAAVGGTVTINCQSSQNVYDKDALAWYQHKPGQRPKLLIYEASKLASGVPSRFSGSGAGTQFTLTISGVQCDDAATYYCAGTFIDNIYTFGGGTEVVVKG
IC50, inhibition of hTSLP-induced CCL17 release from human monocytes [6]: 4.24 nM

B3: anti-hTSLP QB11060, humanized antibody clone hz-3C-V6 (antibody, human IgG4 S228P, kappa, V domains shown)
VH: QVQLVQSGPEVKKPGSSVKVSCKASGYIFTDYAMHWVRQRPGQGLEWMGTFIPLLDTSDYNQNFKGRATITADKSTSTAYMELSSLRSEDTAVYYCARMGVTHSYVMDAWGQGTLVTVSS
VL: EIVLTQSPGTLSLSPGERATLSCRASQPISISVHWYQQKPGEAPRLLIYFASQSISGIPDRFSGSGSGTDFTLTISRLESEDFAVYYCQQTFSLPYTFGTGTKVEIKR
notes: hz-3C with D9P + S108L in the VH
Kd [7]: 1.62 nM
koff [7]: 0.000852 s⁻¹
kon [7]: 527000 M⁻¹ s⁻¹
fold lower binding affinity against comparator QB10985 [8]: 8.8 fold
fold binding difference between hTSLP and cyTSLP [9]: < 10 fold

B4: anti-hTSLP antibody QB11341, humanized clone 135F1 (antibody, human IgG4 S228P, kappa, V domains shown)
VH: EVQLVESGGGLVQPGGSLRLSCAASGFDFSSYWISWVRQAPGKGPEWIASIDIDIDIADYASWAKGRFTISRDNSKNTLYLQMNSLRAEDTAVYYCVRNLGLWGPGTLVTVSS
VL: DIQMTQSPSSLSASVGDRVTITCQSSQNVYDKDALAWYQHKPGKRPKLLIYEASKLASGVPSRFSGSGSGTHFTLTISSLQPEDAATYYCAGTFIDNIYTFGGGTKVEIKR
notes: also called QB1341; top clone
Kd [10]: 1.76 nM
koff [10]: 0.00148 s⁻¹
kon [10]: 842000 M⁻¹ s⁻¹
IC50 (nM) for inhibition of CCL17 secretion [11]: 0.333 nM
IC50 (nM) for inhibition of CCL17 secretion [12]: 0.626 nM
IC50 (nM) for inhibition of CCL17 secretion [13]: 0.361 nM
IC50 (nM) for inhibition of CCL17 secretion [14]: 0.93 nM
IC50 (nM) for inhibition of CCL17 secretion [15]: 0.888 nM
IC50 (nM) for inhibition of CCL17 secretion [16]: 0.712 nM
fold lower binding affinity against comparator antibody QB10985 [8]: ~10 fold

B5: anti-hTSLP antibody QB11548, humanized clone 135F1 after yeast display (antibody, human IgG4 S228P, kappa, V domains shown)
VH: EVQLVESGGGLVQPGGSLRLSCAASGFDFSSYWISWVRQAPGKGPEWIASIDIDIDIADYASWAKGRFTISRDNSKNTLYLQMNSLRAEDTAVYYCVRNLGLWGPGTLVTVSS
VL: DIQMTQSPSSLSASVGDRVTITCQSSQNVYDKDALAWYQHKPGKRPKLLIYEASRLASGVPSRFSGSGSGTHFTLTISSLQPEDAATYYCAGTRIDNIYTFGGGTKVEIKR
IC50 (nM) for inhibition of CCL17 secretion [17]: 0.0757 nM
IC50 (nM) for inhibition of CCL17 secretion [18]: 0.286 nM
IC50 (nM) for inhibition of CCL17 secretion [19]: 0.0921 nM
IC50 (nM) for inhibition of CCL17 secretion [20]: 0.464 nM
IC50 (nM) for inhibition of CCL17 secretion [21]: 0.254 nM
IC50 (nM) for inhibition of CCL17 secretion [22]: 0.251 nM

B6: humanized anti-hIL-33 antibody QB11004 (antibody, human IgG1, kappa, V domains shown)
VH: EVQLLESGGGLVQPGGSLRLSCAASGFTFYSSAMSWVRQTQGKGLEWVSTISSGGSNTYYPDSVKGRFTISRDNSKNTLYLQMNSLGAEDTAVYYCASAYYGRRYDAMDYWGQGTLVTVSS
VL: DVVMTQSPPSLPVTLGQSASISCKSSKSLLHSNGNTYLYWFQQRPGQSPQLLIYRMSNLASGVPDRFSGSGSGTDFTLKISRVEAEDVGVYYCMQHLENPYTFGQGTKVEIKR
IC50 [23]: 0.927 nM
Kd [4]: 6.22 nM
koff [4]: 0.000992 s⁻¹
kon [4]: 160000 M⁻¹ s⁻¹
Kd [5]: 0.387 nM
koff [5]: 0.000628 s⁻¹
kon [5]: 1.62e+06 M⁻¹ s⁻¹

B7: anti-hIL-33 antibody QB11119 (antibody, human IgG1, kappa, L234A L235A, V domains shown)
VH: EVQLLESGGGLVQPGGSLRLSCAASGFTFYSSAMSWVRQTQGKGLEWVSTISSGGSNTYYPDSVKGRFTISRDNSKNTLYLQMNSLGAEDTAVYYCASAYYGRRYDAMDYWGQGTLVTVSS
VL: DVVMTQSPPSLPVTLGQSASISCKSSKSLLHSNANTYLYWFQQRPGQSPQLLIYRMSNLASGVPDRFSGSGSGTDFTLKISRVEAEDVGVYYCMQHLENPYTFGQGTKVEIKR
notes: hIgG1 with L234A+L235A+P329A; G29A in the VL against QB11061; also called parental antibody QB11119
Kd [4]: 15.8 nM
koff [4]: 0.00206 s⁻¹
kon [4]: 131000 M⁻¹ s⁻¹
Kd [5]: 0.397 nM
koff [5]: 0.000604 s⁻¹
kon [5]: 1.52e+06 M⁻¹ s⁻¹

B8: anti-hIL-33 antibody QB11061 (antibody, human IgG1, kappa, V domains shown)
VH: EVQLLESGGGLVQPGGSLRLSCAASGFTFYSSAMSWVRQTPGKGLEWVSTISSGGSNTYYPDSVKGRFTISRDNSKNTLYLQMNSLGAEDTAVYYCASAYYGRRYDAMDYWGQGTLVTVSS
VL: DVVMTQSPPSLPVTLGQSASISCKSSKSLLHSNGNTYLYWFQQRPGQSPQLLIYRMSNLASGVPDRFSGSGSGTDFTLKISRVEAEDVGVYYCMQHLENPYTFGQGTKVEIKR
notes: QB11004 with Q41P in VH-FW2
Kd [4]: 4.75 nM
koff [4]: 0.000893 s⁻¹
kon [4]: 188000 M⁻¹ s⁻¹
Kd [5]: 0.306 nM
koff [5]: 0.000567 s⁻¹
kon [5]: 1.85e+06 M⁻¹ s⁻¹
